Test results taken from patent US20230212319A1, “NOVEL ANTIGEN BINDING DOMAINS AND SYNTHETIC ANTIGEN RECEPTORS INCORPORATING THE SAME” (University of Southern California, priority 2020, published 2023).

B1: 22034 (protein)
chain: MALPVTALLLPLALLLHAARPQLQLQESGPGLVKPSETLSLTCTVSGDSISSGDYYWGWIRQPPGKGLEWIGHIYYSGVTYYNPSLKSRVTISVDTSRNQFSLKLSSVTAADTAVYYCTREDSSNWRSRGQGTLVTVSSLESGGGGSFEEVQLLESGGGLVQPGGSLRLSCAASGFTFSSYAMSWVRQAPGKGLEWVSSISGSGDYIYYADSVKGRFTISRDISKNTLYLQMNSLRAEDTAVYYCAKEGTGANSSLADYRGQGTLVTVSSTREQKLISEEDGSGIQNPDPAVYQLRDSKSSDKSVCLFTDFDSQTNVSQSKDSDVYITDKCVLDMRSMDFKSNSAVAWSNKSDFACANAFNNSIIPEDTFFPSSDVPCDVKLVEKSFETDTNLNFQNLSVIGFRILLLKVAGFNLLMTLRLWSSRAKRSGSGVKQTLNFDLLKLAGDVESNPGPSRGRMAKPLSQEESTLIERATATINSIPISEDYSVASAALSSDGRIFTGVNVYHFTGGPCAELVVLGTAAAAAAGNLTCIVAIGNENRGILSPCGRCRQVLLDLHPGIKAIVKDSDGQPTAVGIRELLPSGYVWEG
B2: 22041 (protein)
chain: MALPVTALLLPLALLLHAARPQLQLQESGPGLVKPSETLSLTCTVSGDSISSGDYYWGWIRQPPGKGLEWIGHIYYSGVTYYNPSLKSRVTISVDTSRNQFSLKLSSVTAADTAVYYCTREDSSNWRSRGQGTLVTVSSLEGSGRADCGFTSESYQQGVLSATILYEILLGKATLYAVLVSALVLMAMVKRKDSRGRAKRSGSGATNFSLLKQAGDVEENPGPTSMDWIWRILFLVGAATGAHSFEVQLLESGGGLIQPGGSLRLSCAASGFTFSSHAMTWVRQAPGKGLEWVSAISGSGDYTHYADSVKGRFTISRDNSKNTVYLQMNSLRAEDSAVYYCAKDEDGGSLLGHRGQGTLVTVSSTRDKTHTCPPCPAIPEDTFFPSPESSCDVKLVEKSFETDTNLNFQNLSVIGFRILLLKVAGFNLLMTLRLWSSRAKRSGSGVKQTLNFDLLKLAGDVESNPGPSRGHMTEYKPTVRLATRDDVPRAVRTLAAAFADYPATRHTVDPDRHIERVTELQELFLTRVGLDIGKVWVADDGAAVAVWTTPESVEAGAVFAEIGPRMAELSGSRLAAQQQMEGLLAPHRPKEPAWFLATVGVSPDHQGKGLGSAVVLPGVEAAERAGVPAFLETSAPRNLPFYERLGFTVTADVEVPEGPRTWCMTRKPGA
B3: 22029 (protein)
chain: MALPVTALLLPLALLLHAARPQLQLQESGPGLVKPSETLSLTCTVSGDSISSGDYYWGWIRQPPGKGLEWIGHIYYSGVTYYNPSLKSRVTISVDTSRNQFSLKLSSVTAADTAVYYCTREDSSNWRSRGQGTLVTVSSLEDKTHTCPPCPAPIKTDVITMDPKDNCSKDANDTLLLQLTNTSAYYMYLLLLLKSVVYFAIITCCLLRRTAFCCNGEKSRAKRSGSGATNFSLLKQAGDVEENPGPTSMDWIWRILFLVGAATGAHSFEVQLVESGGGVVQPGRSLRLSCAASGFSFSGYGMHWVRQAPGKGLEWVAYISYDGSNKYYADSVKGRFTISRDNSKNTLYLQMNSLRAEDTAVYYCAKDPAWGLRLGESSSYDFDIWGQGTMVTVSSTRIQNPDPAVYQLRDSKSSDKSVCLFTDFDSQTNVSQSKDSDVYITDKCVLDMRSMDFKSNSAVAWSNKSDFACANAFNNSIIPEDTFFPSPESSCDVKLVEKSFETDTNLNFQNLSVIGFRILLLKVAGFNLLMTLRLWSSRAKRSGSGVKQTLNFDLLKLAGDVESNPGPSRGHMTEYKPTVRLATRDDVPRAVRTLAAAFADYPATRHTVDPDRHIERVTELQELFLTRVGLDIGKVWVADDGAAVAVWTTPESVEAGAVFAEIGPRMAELSGSRLAAQQQMEGLLAPHRPKEPAWFLATVGVSPDHQGKGLGSAVVLPGVEAAERAGVPAFLETSAPRNLPFYERLGFTVTADVEVPEGPRTWCMTRKPGA
B4: 22025 (protein)
chain: MALPVTALLLPLALLLHAARPQLQLQESGPGLVKPSETLSLTCTVSGDSISSGDYYWGWIRQPPGKGLEWIGHIYYSGVTYYNPSLKSRVTISVDTSRNQFSLKLSSVTAADTAVYYCTREDSSNWRSRGQGTLVTVSSLEDKTHTCPPCPAGRADCGFTSESYQQGVLSATILYEILLGKATLYAVLVSALVLMAMVKRKDSRGRAKRSGSGATNFSLLKQAGDVEENPGPTSMDWIWRILFLVGAATGAHSFEVQLLESGGGLIQPGGSLRLSCAASGFTFSSHAMTWVRQAPGKGLEWVSAISGSGDYTHYADSVKGRFTISRDNSKNTVYLQMNSLRAEDSAVYYCAKDEDGGSLLGHRGQGTLVTVSSTRDKTHTCPPCPAIPEDTFFPSPESSCDVKLVEKSFETDTNLNFQNLSVIGFRILLLKVAGFNLLMTLRLWSSRAKRSGSGVKQTLNFDLLKLAGDVESNPGPSRGHMTEYKPTVRLATRDDVPRAVRTLAAAFADYPATRHTVDPDRHIERVTELQELFLTRVGLDIGKVWVADDGAAVAVWTTPESVEAGAVFAEIGPRMAELSGSRLAAQQQMEGLLAPHRPKEPAWFLATVGVSPDHQGKGLGSAVVLPGVEAAERAGVPAFLETSAPRNLPFYERLGFTVTADVEVPEGPRTWCMTRKPGA
B5: 22048 (protein)
chain: MALPVTALLLPLALLLHAARPQVQLVESGGGLVQPGGSLRLSCAASGFTFTNHAMSWVRQAPGKGLELVSSISGNGRTTYYADSVKGRFTISRDISKNTLDLQMNSLRAEDTAVYYCAKDGGETLVDSRGQGTLVTVSSLEGQPKANPTVTLFPPSSEELQANKATLVCLISDFYPGAVTVAWKADGSPVKAGVETTKPSKQSNNKYAASSYLSLTPEQWKSHRSYSCQVTHEGSTVEKTVAPTECSPIKTDVITMDPKDNCSKDANDTLLLQLTNTSAYYMYLLLLLKSVVYFAIITCCLLRRTAFCCNGEKSRAKRSGSGATNFSLLKQAGDVEENPGPTSMDWIWRILFLVGAATGAHSFEEVQLLESGGGLVQPGGSLRLSCAASGFTFSSYAMSWVRQAPGKGLEWVSSISGSGDYIYYADSVKGRFTISRDISKNTLYLQMNSLRAEDTAVYYCAKEGTGANSSLADYRGQGTLVTVSSTRASTKGPSVFPLAPSSKSTSGGTAALGCLVKDYFPEPVTVSWNSGALTSGVHTFPAVLQSSGLYSLSSVVTVPSSSLGTQTYICNVNHKPSNTKVDKRVEPKSCEVKTDSTDHVKPKETENTKQPSKSCHKPKAIVHTEKVNMMSLTVLGLRMLFAKTVAVNFLLTAKLFFLRAKRSGSGVKQTLNFDLLKLAGDVESNPGPSRGHMTEYKPTVRLATRDDVPRAVRTLAAAFADYPATRHTVDPDRHIERVTELQELFLTRVGLDIGKVWVADDGAAVAVWTTPESVEAGAVFAEIGPRMAELSGSRLAAQQQMEGLLAPHRPKEPAWFLATVGVSPDHQGKGLGSAVVLPGVEAAERAGVPAFLETSAPRNLPFYERLGFTVTADVEVPEGPRTWCMTRKPGA
B6: 22050 (protein)
chain: B5 chain

system: L363 cells; experiment: JNG assay, co-culture with L363 cells; assay type: cell-based; conditions: co-culture with L363
Outline: (§1)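 Read-out is NFAT-driven GFP measured by flow cytometry after ~4–18 h co-culture of SAR-expressing JNG cells with target cells (E:T about 1:2). SARs were introduced by lentiviral spinfection and selected with puromycin or blasticidin when possible; scores (+/- to 5+ ≈ 5–50% GFP+) are relative to parental JNG cells.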

Question: Which “NFAT-GFP ASSAY: L363” value does the source give for B1 here?
Answer: The value was “+/- (refer to approximately 5%, 10%, 20%, 30%, 40% and 50% GFP positive cells)”.

Question: B2 was tested. Which “NFAT-GFP ASSAY: L363” value did it give?
Answer: Its value is “+ (refer to approximately 5%, 10%, 20%, 30%, 40% and 50% GFP positive cells)”.

Question: Which “NFAT-GFP ASSAY: L363” value does the source give for B3 here?
Answer: The value was “+ (refer to approximately 5%, 10%, 20%, 30%, 40% and 50% GFP positive cells)”.

Question: B4 was tested. Which “NFAT-GFP ASSAY: L363” value did it give?
Answer: The value was “+ (refer to approximately 5%, 10%, 20%, 30%, 40% and 50% GFP positive cells)”.

Question: Which “NFAT-GFP ASSAY: L363” value does the source give for B5 here?
Answer: Its value is “+/- (refer to approximately 5%, 10%, 20%, 30%, 40% and 50% GFP positive cells)”.

Question: With B6 as the molecule, how does the “NFAT-GFP ASSAY: L363” value read?
Answer: Its value is “+/- (refer to approximately 5%, 10%, 20%, 30%, 40% and 50% GFP positive cells)”.

system: RAJI cells; experiment: JNG assay, co-culture with RAJI cells; assay type: cell-based; conditions: JNG cells expressing construct, co-culture with Raji
Outline: as §1

Question: B1 was tested. Which “NFAT-GFP ASSAY: Raji” value did it give?
Answer: The value was “+/- (refer to approximately 5%, 10%, 20%, 30%, 40% and 50% GFP positive cells)”.

Question: Which “NFAT-GFP ASSAY: Raji” value does the source give for B2 here?
Answer: Its value is “+ (refer to approximately 5%, 10%, 20%, 30%, 40% and 50% GFP positive cells)”.

Question: With B3 as the molecule, how does the “NFAT-GFP ASSAY: Raji” value read?
Answer: The value was “+/- (refer to approximately 5%, 10%, 20%, 30%, 40% and 50% GFP positive cells)”.

Question: Which “NFAT-GFP ASSAY: Raji” value does the source give for B4 here?
Answer: Its value is “+/- (refer to approximately 5%, 10%, 20%, 30%, 40% and 50% GFP positive cells)”.

Question: With B5 as the molecule, how does the “NFAT-GFP ASSAY: Raji” value read?
Answer: Its value is “+ (refer to approximately 5%, 10%, 20%, 30%, 40% and 50% GFP positive cells)”.

Question: Which “NFAT-GFP ASSAY: Raji” value does the source give for B6 here?
Answer: The value was “+ (refer to approximately 5%, 10%, 20%, 30%, 40% and 50% GFP positive cells)”.
